Experimental data taken from US20220220185A1 (CELL NETWORKS, published 2022).

Key:
Sm-Gβ1 with untagged Gγ2 [1] = molecular target: T1, Sm-Gβ1 with untagged Gγ2 (human, UniProt P62873 2-340; P59768 2-68); assay: NanoBiT split-luciferase complementation in HEK293 cells (NanoBiT-Gs: Gαs-Lg, Sm-Gβ1, Gγ2; pairing from paragraph 252)
T1 construct: whole, on cells; also called Sm-Gβγ; SmBiT-fused Gβ1 subunit and native Gγ2 subunit
Experimental: (§1) To complement the inventive chimeric G-protein-based TGFα shedding assay, the inventors made an additional inventive assay in which dissociation of the Gα subunit from the Gβγ subunits, a critical process of G-protein activation, is measured via a luciferase complementation system. Bioluminescence Resonance Energy Transfer (BRET) between a Renilla luciferase-inserted Gα subunit and a GFP10-fused Gβ or Gγ subunit was previously developed to measure Gα-Gβγ dissociation (Gales et al., 2005). Here, they replaced the BRET pair with a split luciferase (NanoLuc Binary Technology; NanoBiT) (Dixon et al., 2016). […] They generated a series of Gα-Lg, Sm-Gβ and Sm-Gγ subunits and optimized a combination.
(§2) Plasmid transfection was performed in a 6-well plate with a mixture of 100 ng Gα-Lg-encoding plasmid, 500 ng Sm-Gβ-encoding plasmid, 500 ng untagged Gγ₂-encoding plasmid, 200 ng GPCR-encoding plasmid with or without 100 ng RIC8-encoding plasmid (per well, hereafter).

Sm-Gβ1 with untagged Gγ2 [2] = molecular target: T1, Sm-Gβ1 with untagged Gγ2; assay: NanoBiT split-luciferase complementation in HEK293 cells (NanoBiT-Gq: Gαq-Lg, Sm-Gβ1, Gγ2; pairing from paragraph 252)
Experimental: as §1, §2

Sm-Gβ1 with untagged Gγ2 [3] = molecular target: T1, Sm-Gβ1 with untagged Gγ2; assay: NanoBiT split-luciferase complementation in HEK293 cells (NanoBiT-G12: Gα12-Lg, Sm-Gβ1, Gγ2; pairing from paragraph 252)
Experimental: as §1, §2

Sm-Gβ1 with untagged Gγ2 [4] = molecular target: T1, Sm-Gβ1 with untagged Gγ2; assay: NanoBiT split-luciferase complementation in HEK293 cells (NanoBiT-G13: Gα13-Lg, Sm-Gβ1, Gγ2; pairing from paragraph 252)
Experimental: as §1, §2

T1 sequence (P62873 other isoform, or with tags, fused parts or gaps, chain 1 of 2): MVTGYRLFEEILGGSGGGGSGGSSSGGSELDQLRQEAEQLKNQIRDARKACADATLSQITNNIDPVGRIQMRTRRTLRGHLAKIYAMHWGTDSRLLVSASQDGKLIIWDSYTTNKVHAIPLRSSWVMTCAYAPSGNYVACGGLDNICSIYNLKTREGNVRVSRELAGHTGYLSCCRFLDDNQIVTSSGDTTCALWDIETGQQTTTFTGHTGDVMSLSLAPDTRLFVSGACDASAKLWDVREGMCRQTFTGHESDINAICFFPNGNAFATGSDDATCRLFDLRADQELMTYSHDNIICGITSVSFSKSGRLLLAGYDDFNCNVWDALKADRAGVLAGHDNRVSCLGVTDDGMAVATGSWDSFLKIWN
T1 sequence (P59768 2-68, chain 2 of 2): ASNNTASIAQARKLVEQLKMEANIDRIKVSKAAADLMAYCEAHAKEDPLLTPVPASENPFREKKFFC

B1: Gαs-Lg (other, human, UniProt P63092 2-394, looked up)
chain: GCLGNSKTEDQRNEEKAQREANKKIEKQLQKDKQVYRATHRLLLLGAGESGKSTIVKQMRILHVNGFNGEGGEEDPQAARSNSDGEKATKVQDIKNNLKEAIETIVAAMSNLVPPVELANPENQFRVDYILSVMNVPDFDFPPEFYEHAKALWEDEGVRACYERSNEYQLIDCAQYFLDKIDVIKQADYVPSDQDLLRCRVLTSGIFETKFQVDKVNFHMFDVGGQRDERRKWIQCFNDVTAIIFVVASSSYNMVIREDNQTNRLQEALNLFKSIWNNRWLRTISVILFLNKQDLLAEKVLAGKSKIEDYFPEFARYTTPEDATPEPGEDPRVTRAKYFIRDEFLRISTASGDGRHYCYPHFTCAVDTENIRRVFNDCRDIIQRMHLRQYELL
notes: whole, on cells; the LgBiT insert is not placed; also called NanoBiT-Gs (Gα subunit); Gs
Sm-Gβ1 with untagged Gγ2 [1]
  binding result: binds

B2: Gαq-Lg (other, human, UniProt P50148 1-359, looked up)
chain: MTLESIMACCLSEEAKEARRINDEIERQLRRDKRDARRELKLLLLGTGESGKSTFIKQMRIIHGSGYSDEDKRGFTKLVYQNIFTAMQAMIRAMDTLKIPYKYEHNKAHAQLVREVDVEKVSAFENPYVDAIKSLWNDPGIQECYDRRREYQLSDSTKYYLNDLDRVADPAYLPTQQDVLRVRVPTTGIIEYPFDLQSVIFRMVDVGGQRSERRKWIHCFENVTSIMFLVALSEYDQVLVESDNENRMEESKALFRTIITYPWFQNSSVILFLNKKDLLEEKIMYSHLVDYFPEYDGPQRDAQAAREFILKMFVDLNPDSDKIIYSHFTCATDTENIRFVFAAVKDTILQLNLKEYNLV
notes: whole, on cells; the LgBiT insert is not placed; also called NanoBiT-Gq (Gα subunit); Gq
Sm-Gβ1 with untagged Gγ2 [2]
  binding result: binds

B3: Gα12-Lg (other, human, UniProt Q03113 1-381, looked up)
chain: MSGVVRTLSRCLLPAEAGGARERRAGSGARDAEREARRRSRDIDALLARERRAVRRLVKILLLGAGESGKSTFLKQMRIIHGREFDQKALLEFRDTIFDNILKGSRVLVDARDKLGIPWQYSENEKHGMFLMAFENKAGLPVEPATFQLYVPALSALWRDSGIREAFSRRSEFQLGESVKYFLDNLDRIGQLNYFPSKQDILLARKATKGIVEHDFVIKKIPFKMVDVGGQRSQRQKWFQCFDGITSILFMVSSSEYDQVLMEDRRTNRLVESMNIFETIVNNKLFFNVSIILFLNKMDLLVEKVKTVSIKKHFPDFRGDPHRLEDVQRYLVQCFDRKRRNRSKPLFHHFTTAIDTENVRFVFHAVKDTILQENLKDIMLQ
notes: whole, on cells; the LgBiT insert is not placed; also called NanoBiT-G12 (Gα subunit); G12
Sm-Gβ1 with untagged Gγ2 [3]
  binding result: binds

B4: Gα13-Lg (other, human, UniProt Q14344 1-377, looked up)
chain: MADFLPSRSVLSVCFPGCLLTSGEAEQQRKSKEIDKCLSREKTYVKRLVKILLLGAGESGKSTFLKQMRIIHGQDFDQRAREEFRPTIYSNVIKGMRVLVDAREKLHIPWGDNSNQQHGDKMMSFDTRAPMAAQGMVETRVFLQYLPAIRALWADSGIQNAYDRRREFQLGESVKYFLDNLDKLGEPDYIPSQQDILLARRPTKGIHEYDFEIKNVPFKMVDVGGQRSERKRWFECFDSVTSILFLVSSSEFDQVLMEDRLTNRLTESLNIFETIVNNRVFSNVSIILFLNKTDLLEEKVQIVSIKDYFLEFEGDPHCLRDVQKFLVECFRNKRRDQQQKPLYHHFTTAINTENIRLVFRDVKDTILHDNLKQLMLQ
notes: whole, on cells; the LgBiT insert is not placed; also called NanoBiT-G13 (Gα subunit); G13
Sm-Gβ1 with untagged Gγ2 [4]
  binding result: binds
